Laboratory results: publication PMC10705891

Biological target: HopU1 (Pseudomonas syringae, UniProt Q88A91 1-264)
Experiment: MST
Settings: protein: recombinant; tags: C-terminal His6 (pET22b NdeI/XhoI, Ni-NTA; tag position implied by vector)

B1: H1 RNA aptamer (structured_RNA)
RNA: GCCACCAACGACAUUUUGUCAAUCUGUAGAAAAAAUCAGGGUUGAUAUAAAUAGUGCCCAU
Kd: 6.71 ± 0.69 nM

B2: H2 RNA aptamer (structured_RNA)
RNA: GCCACCAACGACAUUACGCAUUGCUUCUAAAGGGUGUGCCGUUGAUAUAAAUAGUGCCCAU
Kd: 6.41 ± 0.48 nM
